# Changes are numbered by the printed parent chain.
# T1: 2488prp DBD (Xpp1 candidate) (Hypocrea jecorina (Trichoderma reesei), UniProt G0RQ24 395-492)
# T1 sequence: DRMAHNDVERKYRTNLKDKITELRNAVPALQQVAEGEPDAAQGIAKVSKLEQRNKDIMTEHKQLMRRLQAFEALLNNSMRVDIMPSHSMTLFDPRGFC
# T2: 2488prp (Xpp1 candidate) (Hypocrea jecorina (Trichoderma reesei), UniProt G0RQ24 1-492)
# T2 sequence: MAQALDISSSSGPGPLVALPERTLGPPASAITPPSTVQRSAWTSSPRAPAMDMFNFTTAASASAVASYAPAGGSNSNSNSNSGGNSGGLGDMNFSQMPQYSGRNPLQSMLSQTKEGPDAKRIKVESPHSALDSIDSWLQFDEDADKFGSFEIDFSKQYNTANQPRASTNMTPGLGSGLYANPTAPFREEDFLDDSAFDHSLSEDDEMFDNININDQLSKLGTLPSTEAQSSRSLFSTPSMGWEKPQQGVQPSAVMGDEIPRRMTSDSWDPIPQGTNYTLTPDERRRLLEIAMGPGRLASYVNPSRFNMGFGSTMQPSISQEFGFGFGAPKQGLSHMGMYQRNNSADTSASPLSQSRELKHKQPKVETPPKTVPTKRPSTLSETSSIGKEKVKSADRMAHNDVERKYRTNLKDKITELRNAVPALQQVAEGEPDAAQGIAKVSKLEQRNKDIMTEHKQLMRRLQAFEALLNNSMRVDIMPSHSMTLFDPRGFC
# B1: Lpxyn2 (dsDNA)
# DNA 1: TGATGAAAGGAGAACAACTTCTAGACTGGGTAAATTGGTCAATGGCCAGCCGCTC
# DNA 2: GAGCGGCTGGCCATTGACCAATTTACCCAGTCTAGAAGTTGTTCTCCTTTCATCA
# B2: Lpxyn2 M (dsDNA)
# DNA 1: B1 DNA 1 with T19G, T20G, C21A, T22G
# DNA 2: B1 DNA 2 with A34C, G35T, A36C, A37C
# What was measured:
# [1] = target: T1, 2488prp DBD (Xpp1 candidate); assay: EMSA; EMSA: 100 ng DBD or 60 ng IVT protein with 15 ng FAM probe, 15 min on ice, binding buffer per cited ref [41]; pull-down binding mix: 200 mM KCl, 200 ng/uL poly(dIdC), 200 ng/uL CKT067/CKT068, 8 mM spermidine, on ice; conditions: protein: recombinant; tags: GST removed by thrombin; chain copies: 2; label: 5'-FAM on strand 1; blunt
# 2488prp (Xpp1 candidate) = target: T2, 2488prp (Xpp1 candidate); assay: as above; conditions: protein: ivt; chain copies: 2; label: 5'-FAM on strand 1; blunt
binder,measurement,setting,value
B1,binding result,[1],binds
same,binding result,2488prp (Xpp1 candidate),binds
B2,binding result,[1],no binding
same,binding result,2488prp (Xpp1 candidate),no binding
